We go through 94 variants from the supplement of paper PMC10567573.

Sequences and labels used below:
B1: WSB1 (parent)
chain: DLKDDGNMMKVLRGHQNWVYSCAF
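Also: lentivirally expressed fusions sorted by FACS into six bins by GFP to DsRed ratio, PSI derived from sequencing read proportions per bin multiplied by bin number.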

The variants in the data set derive from B1. Description: protein stability index of a GFP-peptide fusion (GPS, HEK-293T) (PSI 1-6); higher = more stable. The conditions noted are these: c terminus: a fixed tail appended.
Regarding DLKDDGNMMKVLRGHQNHVYSCAF [W18H], the protein stability index worked out at 2.34.

With DLKDDGNMMKVLRGHQNPVYSCAF [W18P], the protein stability index is 1.86. For DLKDDGNMMKVLRGHQNSVYSCAF [W18S], the protein stability index stood at 2.7. Regarding DLKDDGNMMKVLRGHQNGVYSCAF [W18G], the protein stability index was found to be 2.21. Consider DLKDDGNMMKVLRGHQNKVYSCAF [W18K], for which the protein stability index is 1.46. With DLKDDGNMMKVLRGHQNFVYSCAF [W18F], the protein stability index is 1.47.

With DLKDDGNMMKVLRGHQNLVYSCAF [W18L], the protein stability index is 2.88. As for DLKDDGNMMKVLRGHQNNVYSCAF [W18N], the protein stability index came to 2.24. Turning to DLKDDGNMMKVLRGHQNQVYSCAF [W18Q], the protein stability index turned out to be 2.73. For DLKDDGNMMKVLRGHQNIVYSCAF [W18I], the protein stability index is 2.35.

As to DLKDDGNMMKVLRGHQNDVYSCAF [W18D], the protein stability index amounted to 1.69.

On to DLKDDGNMMKVLRGHQNEVYSCAF [W18E], for which the protein stability index worked out at 2.62. As to DLKDDGNMMKVLRGHQNCVYSCAF [W18C], the protein stability index was found to be 2.38. As for DLKDDGNMMKVLRGHQNWKYSCAF [V19K], the protein stability index amounted to 1.75. Consider DLKDDGNMMKVLRGHQNWAYSCAF [V19A], for which the protein stability index is 2.53. For the variant DLKDDGNMMKVLRGHQNWIYSCAF [V19I], the protein stability index came out at 2.13. As for DLKDDGNMMKVLRGHQNWYYSCAF [V19Y], the figure is 2.87; as for DLKDDGNMMKVLRGHQNWNYSCAF [V19N], 1.44. The result for DLKDDGNMMKVLRGHQNWMYSCAF [V19M] reads 2.52.

For DLKDDGNMMKVLRGHQNWHYSCAF [V19H], the protein stability index was found to be 2.12.

As for DLKDDGNMMKVLRGHQNWQYSCAF [V19Q], the protein stability index is 2.07.

With DLKDDGNMMKVLRGHQNWRYSCAF [V19R], the protein stability index was found to be 2.86. Consider DLKDDGNMMKVLRGHQNWTYSCAF [V19T], for which the protein stability index amounted to 1.71. The result for DLKDDGNMMKVLRGHQNWWYSCAF [V19W] reads 2.28; that for DLKDDGNMMKVLRGHQNWLYSCAF [V19L], 2.22. With DLKDDGNMMKVLRGHQNWFYSCAF [V19F], the protein stability index stood at 1.34.

For DLKDDGNMMKVLRGHQNWDYSCAF [V19D], the protein stability index was 2.15. Consider DLKDDGNMMKVLRGHQNWPYSCAF [V19P], for which the protein stability index is 2.03. With DLKDDGNMMKVLRGHQNWSYSCAF [V19S], the protein stability index was 1.04. For DLKDDGNMMKVLRGHQNWCYSCAF [V19C], the protein stability index turned out to be 2.73. For DLKDDGNMMKVLRGHQNWGYSCAF [V19G], the protein stability index was found to be 2.66. DLKDDGNMMKVLRGHQNWVWSCAF [Y20W]: the protein stability index came out at 2.28. As for DLKDDGNMMKVLRGHQNWVSSCAF [Y20S], the protein stability index worked out at 1.83.

Take DLKDDGNMMKVLRGHQNWVTSCAF [Y20T]: the protein stability index amounted to 2.63.

With DLKDDGNMMKVLRGHQNWVDSCAF [Y20D], the protein stability index was 1.69. The result for DLKDDGNMMKVLRGHQNWVRSCAF [Y20R] reads 2.05; that for DLKDDGNMMKVLRGHQNWVMSCAF [Y20M], 1.61.

With DLKDDGNMMKVLRGHQNWVLSCAF [Y20L], the protein stability index was determined as 2.57.

With DLKDDGNMMKVLRGHQNWVKSCAF [Y20K], the protein stability index turned out to be 1.39.

Regarding DLKDDGNMMKVLRGHQNWVESCAF [Y20E], the protein stability index worked out at 1.6.

As for DLKDDGNMMKVLRGHQNWVQSCAF [Y20Q], the protein stability index was 1.68. DLKDDGNMMKVLRGHQNWVVSCAF [Y20V]: the protein stability index is 3.3. For the variant DLKDDGNMMKVLRGHQNWVGSCAF [Y20G], the protein stability index was 1.97.

Turning to DLKDDGNMMKVLRGHQNWVCSCAF [Y20C], the protein stability index is 3.17. Consider DLKDDGNMMKVLRGHQNWVHSCAF [Y20H], for which the protein stability index worked out at 2.06.

In the case of DLKDDGNMMKVLRGHQNWVPSCAF [Y20P], the protein stability index amounted to 1.84. On to DLKDDGNMMKVLRGHQNWVFSCAF [Y20F], for which the protein stability index is 1.66.

Regarding DLKDDGNMMKVLRGHQNWVASCAF [Y20A], the protein stability index is 2.28. The result for DLKDDGNMMKVLRGHQEWVYSCAF [N17E] reads 1.68. On to DLKDDGNMMKVLRGHQAWVYSCAF [N17A], for which the protein stability index was 2.33. On to DLKDDGNMMKVLRGHQHWVYSCAF [N17H], for which the protein stability index turned out to be 1.26. As for DLKDDGNMMKVLRGHQGWVYSCAF [N17G], the figure is 1.78. DLKDDGNMMKVLRGHQRWVYSCAF [N17R]: the protein stability index is 2.05. As for DLKDDGNMMKVLRGHQDWVYSCAF [N17D], the figure is 1.94. As to DLKDDGNMMKVLRGHQFWVYSCAF [N17F], the protein stability index came to 2.34. For the variant DLKDDGNMMKVLRGHQSWVYSCAF [N17S], the protein stability index amounted to 1.81.

DLKDDGNMMKVLRGHQKWVYSCAF [N17K]: the protein stability index stood at 2.1.

As for DLKDDGNMMKVLRGHQPWVYSCAF [N17P], the protein stability index was found to be 1.86.

As to DLKDDGNMMKVLRGHQQWVYSCAF [N17Q], the protein stability index was determined as 2.95. On to DLKDDGNMMKVLRGIQNWVYSCAF [H15I], for which the protein stability index is 1.96. On to DLKDDGNMMKVLRGNQNWVYSCAF [H15N], for which the protein stability index stood at 2.81. As to DLKDDGNMMKVLRGPQNWVYSCAF [H15P], the protein stability index stood at 2.65. As to DLKDDGNMMKVLRGTQNWVYSCAF [H15T], the protein stability index amounted to 1.92.

On to DLKDDGNMMKVLRGKQNWVYSCAF [H15K], for which the protein stability index is 2.24. DLKDDGNMMKVLRGFQNWVYSCAF [H15F]: the protein stability index was 2.4. DLKDDGNMMKVLRGLQNWVYSCAF [H15L]: the protein stability index amounted to 1.78.

DLKDDGNMMKVLRGQQNWVYSCAF [H15Q]: the protein stability index was 1.5.

In the case of DLKDDGNMMKVLRGSQNWVYSCAF [H15S], the protein stability index was 1.88. With DLKDDGNMMKVLRGWQNWVYSCAF [H15W], the protein stability index turned out to be 1.94.

In the case of DLKDDGNMMKVLRGMQNWVYSCAF [H15M], the protein stability index came to 1.46. For DLKDDGNMMKVLRGEQNWVYSCAF [H15E], the protein stability index is 2.75. For DLKDDGNMMKVLRGGQNWVYSCAF [H15G], the protein stability index stood at 4.54. The result for DLKDDGNMMKVLRGDQNWVYSCAF [H15D] reads 1.49; that for DLKDDGNMMKVLRGAQNWVYSCAF [H15A], 2.26; that for DLKDDGNMMKVLRGRQNWVYSCAF [H15R], 1.91. With DLKDDGNMMKVLRGHQNWVYSCAQ [F24Q], the protein stability index was 2.21.

Regarding DLKDDGNMMKVLRGHQNWVYSCAD [F24D], the protein stability index is 3.3. As for DLKDDGNMMKVLRGHQNWVYSCAR [F24R], the protein stability index came out at 2.33. Take DLKDDGNMMKVLRGHQNWVYSCAN [F24N]: the protein stability index is 2.18. As for DLKDDGNMMKVLRGHQNWVYSCAT [F24T], the figure is 1.98; as for DLKDDGNMMKVLRGHQNWVYSCAI [F24I], 2.28; as for DLKDDGNMMKVLRGHQNWVYSCAG [F24G], 2.19.

On to DLKDDGNMMKVLRGHQNWVYSCAW [F24W], for which the protein stability index came out at 4.14.

Consider DLKDDGNMMKVLRGHQNWVYSCAA [F24A], for which the protein stability index stood at 2.14. As for DLKDDGNMMKVLRGHQNWVYSCAP [F24P], the figure is 2.95; as for DLKDDGNMMKVLRGHQNWVYSCAH [F24H], 3.34. With DLKDDGNMMKVLRGHQNWVYSCAV [F24V], the protein stability index stood at 2.97. In the case of DLKDDGNMMKVLRGHQNWVYSCAE [F24E], the protein stability index was 1.82. As for DLKDDGNMMKVLRGHQNWVYSCAM [F24M], the protein stability index was found to be 2.27. DLKDDGNMMKVLRGHQNWVYSCAS [F24S]: the protein stability index was determined as 2.89. As to DLKDDGNMMKVLRGHQNWVYSCAL [F24L], the protein stability index worked out at 3.07. Consider DLKDDGNMMKVLRGHQNWVYSCAY [F24Y], for which the protein stability index is 2.38. Take DLKDDGNMMKVLRGHQNWVYSCAK [F24K]: the protein stability index was found to be 2.34. As for DLKDDGNMMKVLRGHQNWVYSCAC [F24C], the protein stability index was 1.47.
